Changes are numbered by the printed parent chain. Names may count otherwise.
T1: MBP-TOFU-6^eTUDOR domain (C. elegans, UniProt Q09293 119-314)
T1 construct: TOFU-6, C. elegans, eTUDOR domain (residues 119-314 as stated for TOFU-6^eTUDOR); source: purified recombinant
T1 sequence (looked up): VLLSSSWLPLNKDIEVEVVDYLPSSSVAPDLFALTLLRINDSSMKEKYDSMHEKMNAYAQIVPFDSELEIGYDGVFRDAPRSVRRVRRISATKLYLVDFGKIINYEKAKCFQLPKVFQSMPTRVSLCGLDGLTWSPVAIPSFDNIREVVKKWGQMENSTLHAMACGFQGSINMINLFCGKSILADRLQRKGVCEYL

T2: MBP-tagged TOFU-1^82-373 (C. elegans, UniProt O17608 82-373)
T2 construct: TOFU-1 (SLFL-1), C. elegans, residues 82-373; source: E. coli BL21(DE3) derivative, purified; not shown: MBP, N-terminal, kept
T2 sequence (looked up): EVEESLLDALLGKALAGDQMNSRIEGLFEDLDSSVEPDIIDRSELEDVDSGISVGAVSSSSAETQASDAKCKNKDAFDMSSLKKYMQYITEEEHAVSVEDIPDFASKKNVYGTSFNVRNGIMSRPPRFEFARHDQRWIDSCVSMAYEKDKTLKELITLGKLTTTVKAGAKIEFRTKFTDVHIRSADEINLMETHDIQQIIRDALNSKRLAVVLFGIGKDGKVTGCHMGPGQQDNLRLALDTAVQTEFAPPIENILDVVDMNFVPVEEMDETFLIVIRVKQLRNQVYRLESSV

T3: TOFU-6^eTUDOR V266E (C. elegans, UniProt Q09293 119-314, V266E)
T3 construct: TOFU-6, C. elegans, eTUDOR domain (residues 119-314 as stated for TOFU-6^eTUDOR) with V266E; source: purified recombinant
T3 sequence (looked up): T1 sequence (looked up) with V148E

B1: GST-tagged TOFU-1^82-113 (peptide, UniProt O17608 82-113, looked up)
chain: EVEESLLDALLGKALAGDQMNSRIEGLFEDLD
notes: also called TOFU-1^pep; source: purified recombinant; not shown: GST, N-terminal, kept
B2: TOFU-6 eTUDOR domain (residues 119-314) (domain or fragment, C. elegans, UniProt Q09293 119-314, looked up)
chain: T1 sequence (looked up)
notes: TOFU-6, C. elegans, eTUDOR domain, residues 119-314; also called extended TUDOR domain of TOFU-6
B3: TOFU-1^82-172 L88R/L92R (domain or fragment, C. elegans, UniProt O17608 82-172, looked up)
chain: EVEESLRDALRGKALAGDQMNSRIEGLFEDLDSSVEPDIIDRSELEDVDSGISVGAVSSSSAETQASDAKCKNKDAFDMSSLKKYMQYITE
notes: source: purified recombinant
B4: TOFU-1^pep (residues 82-113) (peptide, UniProt O17608 82-113, looked up)
chain: B1 chain
notes: also called first helix of the N-terminal part of TOFU-1; source: E. coli BL21(DE3) derivative, purified
B5: TOFU-1^82-172 (domain or fragment, C. elegans, UniProt O17608 82-172, looked up)
chain: B3 chain with R7L, R11L
notes: also called TOFU-1^N; source: E. coli BL21(DE3) derivative, purified
B6: TOFU-1^W-82-113 (peptide)
chain: WEVEESLLDALLGKALAGDQMNSRIEGLFEDLD
notes: tryptophan residue added at the N terminus so that the concentration can be determined; Used for ITC and crystallization; also called TOFU-1^pep; TOFU-1 peptide; source: purified (engineered TOFU-1 peptide)

Legend:
Conditions in all cases: both partners purified
MBP-TOFU-6^eTUDOR domain = target: T1, MBP-TOFU-6^eTUDOR domain; assay: pull-down; purified MBP-TOFU-6^eTUDOR constructs as bait (MBP pull-down) and GST-tagged TOFU-1 constructs as bait (GST pull-down); 20 mM Tris/HCl pH 7.5, 150 mM NaCl, 10% glycerol, 0.05% NP40, 1 mM DTT; SDS-PAGE with Coomassie staining
MBP-tagged TOFU-1^82-373 = target: T2, MBP-tagged TOFU-1^82-373; assay: pull-down; purified MBP-tagged TOFU-1 as bait on amylose beads, incubated with excess prey; 20 mM Tris/HCl pH 7.5, 150 mM NaCl, 10% glycerol, 0.05% NP40, 1 mM DTT; SDS-PAGE with Coomassie staining
[1] = target: B2; assay: SEC; purified proteins alone or mixed at 20-40 uM, 1 h on ice; Superdex 200 Increase 3.2/300 in 20 mM Tris/HCl pH 7.5, 150 mM NaCl, 2 mM DTT; elution volumes compared, peak fractions on SDS-PAGE
TOFU-6^eTUDOR V266E = target: T3, TOFU-6^eTUDOR V266E; assay: as above
[2] = target: B2; assay: ITC; TOFU-6^eTUDOR (injectant, 400-450 uM) titrated into TOFU-1^W-82-113 (cell, 45-48 uM); 25 C; 20 mM Tris, 250 mM NaCl, 0.5 mM TCEP, pH 7.50; mean of three experiments

Binder: B1
binding result (MBP-TOFU-6^eTUDOR domain): binds

Binder: B2
binding result (MBP-tagged TOFU-1^82-373): binds

Binder: B3
binding result [1]: binds

Binder: B4
binding result [1]: binds

Binder: B5
binding result [1]: binds | binding result (TOFU-6^eTUDOR V266E): binds

Binder: B6
Kd [2]: ~20 µM
